Literature values in paper PMC10876095.
Read-outs that look alike come from different tables or passages of the source.

How the values were obtained:
[1] = target: tau (Homo sapiens) (UniProt P10636); experiment: SPR
[2] = target: tau (Homo sapiens) (UniProt P10636); experiment: SPR; remark: listed apart in the source
[3] = target: tau (Homo sapiens) (UniProt P10636)

Chain of UniProt P10636 (P10636 2-758): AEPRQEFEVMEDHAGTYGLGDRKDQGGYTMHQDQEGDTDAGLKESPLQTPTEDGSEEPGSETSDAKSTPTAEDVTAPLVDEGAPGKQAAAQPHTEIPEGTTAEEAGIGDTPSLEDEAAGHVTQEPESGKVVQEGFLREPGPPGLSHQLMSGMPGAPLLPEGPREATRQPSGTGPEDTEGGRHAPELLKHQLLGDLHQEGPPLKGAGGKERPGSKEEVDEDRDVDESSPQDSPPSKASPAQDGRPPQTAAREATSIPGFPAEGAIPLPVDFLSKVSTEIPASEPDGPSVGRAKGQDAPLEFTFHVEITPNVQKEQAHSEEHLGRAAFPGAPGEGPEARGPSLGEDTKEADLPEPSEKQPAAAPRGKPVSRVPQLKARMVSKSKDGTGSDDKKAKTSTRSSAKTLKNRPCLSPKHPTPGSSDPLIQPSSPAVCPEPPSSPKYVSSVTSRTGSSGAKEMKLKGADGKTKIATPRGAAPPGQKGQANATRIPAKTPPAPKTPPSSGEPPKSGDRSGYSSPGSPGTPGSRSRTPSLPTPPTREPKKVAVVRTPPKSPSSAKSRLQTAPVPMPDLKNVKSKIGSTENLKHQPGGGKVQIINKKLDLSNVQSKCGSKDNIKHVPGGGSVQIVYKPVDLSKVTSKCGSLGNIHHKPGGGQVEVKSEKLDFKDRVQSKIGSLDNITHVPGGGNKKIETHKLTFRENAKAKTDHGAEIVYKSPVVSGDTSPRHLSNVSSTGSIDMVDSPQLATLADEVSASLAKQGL

Kd [1]: 0.312 µM
Kd [2]: 0.022 µM
Kd [3]: 0.9 µM
Substance: 14-3-3ζ (from UniProt P63104)
